Measured values as given in patent publication US20100285988A1.
Where two headings read alike, the source gives them in different places.

Columns and labels:
[1] = target: T1, γ-secretase (human; HeLa cell membrane / solubilized HeLa membrane; endogenous in HEK293 cells) (human), P49768; settings: modification not given
[2] = target: T1, γ-secretase (human; HeLa cell membrane …); settings: modification not given; remark: listed apart in the source

| IC50 [1] | IC50 [2] | Binder |
| --- | --- | --- |
| 14 µM | – | KLVFFAED |
| – | 8.9 µM | LVFFAEDV |
